Results as given in the RNAGym collection of RNA variant scans (doi:10.1073/pnas.2313332121).
Fewer inactive variants are shown than the library holds.

B1: TPR 5TU (parent)
chain: GGAUCUUCUCGAUCUAACAAAAAAGACAAAUCUGCCACAAAGCUUGAGAGCAUCUUCGGAUGCAGAGGCGGCAGCCUUCGGUGGCGCGAUAGCGCCAACGUUCUCAACUAUGACACGCAAAACGCGUGCUCCGUUGAAUGGAGUUUAUCAUG

Variants of: B1
Assay: polymerase ribozyme fitness, log enrichment relative to wild type (log ratio); higher = more active; in vitro selection for triplet polymerase activity
In short: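 Only genotypes with ≥10 input reads and ≥1 read per output were kept after Illumina sequencing of input and output libraries. These libraries were PCR-built, transcribed mutants of each subunit of a heterodimeric triplet polymerase ribozyme, each put through one triplicate in vitro selection round with frozen incubation at −7 °C, gel excision of extended constructs, streptavidin-bead capture and RT-PCR. Fitness is a logarithmic ratio of genotype enrichment to wild-type enrichment, from inverse-variance-weighted replicate averages, with the logarithm in base 2.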

Row | Variant | polymerase ribozyme fitness (log ratio)
1 | G34U C96G | -2.91
2 | C35A G65U G83A G140U | ≤ -4.2
3 | C35A G83C | -3.93
4 | C35A G83U | ≤ -4.2
5 | C35G G68A A91U U144C | ≤ -4.2
6 | C35A G70A A89G G92A | ≤ -4.2
7 | G34U C95U A107G A110G | -3.86
8 | G34U U77G C87A A113C | ≤ -4.2
9 | C35U A115U | -1.54
10 | C35A C54G C72A C75A G84C C114U G133U A138G | ≤ -4.2
11 | C35U A49G G70A C95G C105A | ≤ -4.2
12 | C35U A41C U53A C75G C114U G136U | ≤ -4.2
13 | C35U C43A C95G U101C | ≤ -4.2
14 | G34U A142C | -3.85
15 | C35A A47C G86U | ≤ -4.2
16 | C35A A52C U77C A147C | ≤ -4.2
17 | G34U U56A | -1.7
18 | C35G C51G U56G G70A C76G C85G G133U | ≤ -4.2
19 | G34U A41G G81A G84U C87A C93A A110G | ≤ -4.2
20 | C35G A89C C96G | -4.02
21 | C35U C57U C95G C99G A120U | -3.85

Row | Variant | polymerase ribozyme fitness (log ratio)
22 | C35G C51U C85U U139G A142U | ≤ -4.2
23 | C35G G86A A120C C125U G143C | ≤ -4.2
24 | C35U A49G G88U C93G | ≤ -4.2
25 | G34U A47U | -2.01
26 | G34U C79G G92U C93G U109A G143C | ≤ -4.2
27 | C35G G58C C125U A147C | ≤ -4.2
28 | C35U C51U G67A G92A C131G G133A U145G | ≤ -4.2
29 | C35U A49C U53G C75G G92A A119U A120G G133U A138C | ≤ -4.2
30 | C35U A40G C51U G81C C87A | ≤ -4.2
31 | G34U G94A | -2.37
32 | C35G U55G U61A C79G C93G A107G | ≤ -4.2
33 | C35A G100A C125G C131G | ≤ -4.2
34 | C35A C95G C105G A106G G141A | ≤ -4.2
35 | C35G C87U C118U | -4.18
36 | G34U G141C | -2.78
37 | C35A A39C A91U A121U | ≤ -4.2
38 | C35A G50U C69A G74A | ≤ -4.2
39 | C35A A52C C79G C96U U127C C149A | ≤ -4.2
40 | C35A U144G U151A | ≤ -4.2
41 | C35G U55G G67A G92U | ≤ -4.2
42 | C35G C69A C76A C118G U127C | ≤ -4.2

Row | Variant | polymerase ribozyme fitness (log ratio)
43 | C35G G42A U130G C131A | -4.12
44 | C35G U78G C99A | ≤ -4.2
45 | C35A U101C | -3.87
46 | G34U U82G C96G A106G U145C | -3.75
47 | C35U A52C C123U | -1.31
48 | C35U C38A G83U G152A | ≤ -4.2
49 | C35A G67U G94U | ≤ -4.2
50 | G34U G58C C69U A91G G128A U135C | ≤ -4.2
51 | C35A A64C A98U C99U G152U | ≤ -4.2
52 | G34U C51U G59U G88A G141U A142G U146G A147U | ≤ -4.2
53 | C35A A52C G67U G68C C76U A115U A120C U134C | ≤ -4.2
54 | C35U A47G C99G G152A | -3.48
55 | C35A A41C G59C C87U G100C C105G A121C | ≤ -4.2
56 | C35A A39C G83A C114A G117A C123G G140U | ≤ -4.2
57 | C35G U139C | ≤ -4.2
58 | C35A A89U U90G C99U U144G | ≤ -4.2
59 | G34U C76U A119U | -3.19
60 | C35G C105U C129A A150C | -4.14
61 | C35G G50A G58A A66C C75A C87U | ≤ -4.2
62 | C35A G74A U144G C149G | ≤ -4.2
63 | G34U G58U G74U G81A U102A U104C | ≤ -4.2

Row | Variant | polymerase ribozyme fitness (log ratio)
64 | C35A A37G U56A U61A | -3.7
65 | C35G C54A U56A C79G C99U G126U G143U | ≤ -4.2
66 | C35A G126A | -3.51
67 | C35G G83C A91C C108U G136U | ≤ -4.2
68 | C35G U55A G94A U101G C131U | ≤ -4.2
69 | C35U C38G G86A G126A G136U | ≤ -4.2
70 | C35U C51U C85A | -3.1
71 | G34U A41G A47C C116U | ≤ -4.2
72 | C35A C85A | -3.65
73 | C35U C43A G58U C75G C87G A121U C123U G133A | ≤ -4.2
74 | C35U A89U C95A G126A A142C | ≤ -4.2
75 | C35A C95G | -4.1
76 | C35U A47C U56G A64U A106U G133U | ≤ -4.2
77 | C35U C69U A91G C118A | -3.8
78 | C35A U53A U61A G62C A64G A66C C87G G152U | ≤ -4.2
79 | C35A A66G G70U C87G C96G A121U C149U | ≤ -4.2
80 | C35U A41G C85U G141U | 1.25
81 | C35U A49G G50A U77G C96U G143C A150G U151A | ≤ -4.2
82 | C35G A60C | -3.99
83 | C35A A39C C87U G92C A138C A147G | ≤ -4.2
